According to patent publication US9393271B2, “GHRH agonists for islet cell transplantation and function and the treatment of diabetes” (UNIVERSITY OF MIAMI, priority 2012, dated 2016):
Read-outs that look alike come from different tables or passages of the source. Non-standard residues stand in square brackets, D forms with d. Residues, ends and D or L forms follow the SMILES beside them. No end group written: not given here. *: point of attachment. Phe(F5) = N[C@@H](Cc1c(F)c(F)c(F)c(F)c1F)C(=O)O; Desaminotyrosyl = O=C(CCc1ccc(O)cc1)*; NMeY = CN[C@@H](Cc1ccc(O)cc1)C(=O)O; Agmatine = N=C(N)NCCCCN*; Nle = CCCC[C@H](N)C(=O)O; Orn = NCCC[C@H](N)C(=O)O; Abu = CC[C@H](N)C(=O)O; GABA = NCCCC(=O)O

Key:
INS-1 cells = test: INS-1 proliferation (BrdU Cell Proliferation Assay); format: cell-based, rat; settings: different concentrations, 24 h, 48 h and 72 h
Method: For determination of proliferation activity, BrdU incorporation was performed in INS-1 cells following exposure to P-27403. Proliferation was measured using BrdU Cell Proliferation Assay (Millipore) following the manufacturer's description. The maximal enhancement in proliferation rate of 16% compared to control was found at 10^−8 M concentration of P-27403 (FIG. 1C).
INS-1 cells were grown for 72 h before experimentation. Cells were treated with GHRH agonists MR356, MR367, and MR403 at different concentrations or with 0.1% (vol/vol) DMSO as control for 24 h, 48 h and 72 h. Proliferation was measured using BrdU Cell Proliferation Assay (Millipore) following the manufacturer's description.

[1] = target: T1, GHRH receptor (human pituitary membrane homogenates) (Homo sapiens, UniProt Q02643); test: GHRH receptor binding, ligand competition with 125I-labeled JV-1-42 (Table 7); set-up: Normal human pituitaries were purchased from the National Hormone and Peptide Program; tissue National Hormone and Peptide Program (A. F. Parlow, Harbor-UCLA Medical Center, Torrance, Calif.); host or cells: normal human pituitary, membrane fraction / homogenate; settings: JI-38 = 1
T1 sequence (Q02643 23-423): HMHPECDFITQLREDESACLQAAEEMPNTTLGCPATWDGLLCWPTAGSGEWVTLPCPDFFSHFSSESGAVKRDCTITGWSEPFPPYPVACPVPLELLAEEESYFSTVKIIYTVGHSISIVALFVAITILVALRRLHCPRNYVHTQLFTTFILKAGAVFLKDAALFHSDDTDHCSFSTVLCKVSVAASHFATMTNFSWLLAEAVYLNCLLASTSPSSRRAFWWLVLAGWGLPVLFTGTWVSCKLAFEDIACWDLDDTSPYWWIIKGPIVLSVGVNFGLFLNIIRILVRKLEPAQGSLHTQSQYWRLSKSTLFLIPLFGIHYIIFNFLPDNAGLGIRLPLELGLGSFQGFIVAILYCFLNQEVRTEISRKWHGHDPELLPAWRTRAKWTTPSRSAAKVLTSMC

GH level [2] = test: In vivo endocrine activity (GH release), intravenous administration; settings: rat
Method: In vivo tests on endocrine activity of new GHRH agonists (Intravenous administration). For in vivo tests based on intravenous administration, adult male Sprague-Dawley rats were anesthetized with pentobarbital (6 mg/100/g, b.w.), and GHRH agonists were injected 20 minutes after the injection of pentobarbital. Blood samples were taken from the jugular vein (pretreated level), immediately after hGHRH(1-29)NH2 injection (as a control) or after hGHRH analogs injection. Blood samples were taken from the jugular vein 5, 15 and 30 minutes after the injection. The blood samples were centrifuged, plasma was removed and the GH level was measured by ELISA.

[3] = target: T1, GHRH receptor (human pituitary membrane homogenates); test: GHRH receptor binding, ligand competition with 125I-labeled JV-1-42 (Table 5)
Description: Normal human pituitaries were purchased from the National Hormone and Peptide Program (A. F. Parlow, Los Angeles, County Harbor-UCLA Medical Center, Torrance, Calif.).

GH level [4] = test: In vivo endocrine activity (GH release), subcutaneous administration; settings: rat, s.c.
Method: Subcutaneous Administration. Adult male rats were used and anesthetized with pentobarbital (6 mg/100 g, b.w.), by i.p. injection. […] Blood samples were taken from the jugular vein 5, 15 and/or 30 minutes after the injection. The blood samples were centrifuged, plasma was removed and the GH level was measured by ELISA. The results are summarized in terms of potency in Table 9.

[5] = target: GHRH receptor in human pituitary membrane homogenates (human) (UniProt Q02643); test: ligand competition, 125I-JV-1-42 displaced, human pituitary membranes
[6] = target: GHRH receptor in human pituitary membrane homogenates (human) (UniProt Q02643); test: ligand competition, [His1,125I-Tyr10,Nle27]hGHRH(1-32)NH2 displaced, human pituitary membranes
[7] = target: GHRH receptor in human pituitary membrane homogenates (human) (UniProt Q02643); test: ligand competition, 125I-JV-1-42 displaced, human pituitary membranes; remark: listed apart in the source
GHRH receptor (rat) [8] = target: T2, GHRH receptor (rat) (rat, UniProt Q02644)
T2 sequence: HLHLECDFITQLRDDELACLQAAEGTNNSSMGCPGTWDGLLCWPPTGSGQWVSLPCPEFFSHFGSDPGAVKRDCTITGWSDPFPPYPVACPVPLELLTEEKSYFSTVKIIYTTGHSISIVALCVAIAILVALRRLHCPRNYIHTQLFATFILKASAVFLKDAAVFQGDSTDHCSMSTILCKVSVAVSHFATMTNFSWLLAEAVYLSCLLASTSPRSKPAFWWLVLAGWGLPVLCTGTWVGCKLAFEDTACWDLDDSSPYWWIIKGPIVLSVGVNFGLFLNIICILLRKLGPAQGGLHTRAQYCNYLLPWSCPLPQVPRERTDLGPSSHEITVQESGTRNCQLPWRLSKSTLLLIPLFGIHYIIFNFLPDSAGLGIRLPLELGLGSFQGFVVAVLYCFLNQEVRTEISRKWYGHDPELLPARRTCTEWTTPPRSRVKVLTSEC

[9] = target: T3, GHRH receptor in human pituitary membrane homogenates (human, UniProt Q02643); test: ligand competition, 125I-JV-1-42 displaced, human pituitary membranes
T3 sequence: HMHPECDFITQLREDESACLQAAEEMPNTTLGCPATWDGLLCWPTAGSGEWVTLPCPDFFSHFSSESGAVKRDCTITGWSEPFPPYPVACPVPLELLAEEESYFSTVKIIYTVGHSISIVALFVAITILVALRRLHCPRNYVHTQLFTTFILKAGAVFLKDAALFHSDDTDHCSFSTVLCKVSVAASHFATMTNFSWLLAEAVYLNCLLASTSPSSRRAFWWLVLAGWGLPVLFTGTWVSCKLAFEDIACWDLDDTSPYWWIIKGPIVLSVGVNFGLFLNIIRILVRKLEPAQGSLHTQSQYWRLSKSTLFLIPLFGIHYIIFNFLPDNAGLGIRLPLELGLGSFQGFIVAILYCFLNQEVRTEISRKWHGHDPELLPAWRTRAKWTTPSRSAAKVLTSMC

[10] = target: T3, GHRH receptor in human pituitary …; test: as above; remark: listed apart in the source
GHRH receptor (rat) [11] = target: T2, GHRH receptor (rat); test: cell-based or functional assay

For `CCCC[C@H](NC(=O)[C@@H](NC(=O)[C@H](CC(=O)O)NC(=O)[C@H](CCC(N)=O)NC(=O)[C@H](CC(C)C)NC(=O)[C@H](CC(C)C)NC(=O)[C@H](CCCN)NC(=O)[C@H](CCCNC(=N)N)NC(=O)[C@H](C)NC(=O)[C@H](CO)NC(=O)[C@H](CC(C)C)NC(=O)[C@H](CCC(N)=O)NC(=O)[C@H](CC)NC(=O)[C@H](CC(C)C)NC(=O)[C@@H](NC(=O)[C@H](CCCN)NC(=O)[C@H](CCCNC(=N)N)NC(=O)[C@H](Cc1ccc(O)cc1)NC(=O)[C@H](CO)NC(=O)[C@H](CC(N)=O)NC(=O)[C@@H](NC(=O)[C@H](Cc1ccccc1)NC(=O)[C@@H](NC(=O)[C@H](C)NC(=O)[C@H](CC(=O)O)NC(=O)[C@@H](C)NC(=O)[C@H](Cc1ccc(O)cc1)NC)[C@@H](C)CC)[C@@H](C)O)C(C)C)[C@@H](C)CC)C(=O)N[C@@H](CC(=O)O)C(=O)NCCCCNC(=N)N` [Peptide P-20367, [N—Me-Tyr^1, D-Ala^2, Orn^12, Abu^15, Orn^21, Nle^27, Asp^28, Agm^29]hGHRH(1-29)] (H-[NMeY][dA]DAIFTNSYR[Orn]VL[Abu]QLSAR[Orn]LLQDI[Nle]D-Agmatine), the “Cell proliferation compared to control” value (INS-1 cells) was “significantly induced cell proliferation” and the “Relative affinitiy (Binding potency) vs JI-38” value (“Relative affinitiy … vs JI-38” below) [1] was 2.56.

In the case of `CCCC[C@H](NC(=O)[C@@H](NC(=O)[C@H](CC(=O)O)NC(=O)[C@H](CCC(N)=O)NC(=O)[C@H](CC(C)C)NC(=O)[C@H](CC(C)C)NC(=O)[C@H](CCCN)NC(=O)[C@H](CCCNC(=N)N)NC(=O)[C@H](C)NC(=O)[C@H](CO)NC(=O)[C@H](CC(C)C)NC(=O)[C@H](CCC(N)=O)NC(=O)[C@H](CC)NC(=O)[C@H](CC(C)C)NC(=O)[C@@H](NC(=O)[C@H](CCCN)NC(=O)[C@H](CCCNC(=N)N)NC(=O)[C@H](Cc1ccc(O)cc1)NC(=O)[C@H](CO)NC(=O)[C@H](CC(N)=O)NC(=O)[C@@H](NC(=O)[C@H](Cc1c(F)c(F)c(F)c(F)c1F)NC(=O)[C@@H](NC(=O)[C@H](C)NC(=O)[C@H](CC(=O)O)NC(=O)[C@@H](C)NC(=O)CCc1ccc(O)cc1)[C@@H](C)CC)[C@@H](C)O)C(C)C)[C@@H](C)CC)C(=O)N[C@@H](CO)C(=O)N[C@@H](CCCNC(=N)N)C(=O)NCCCC(N)=O` [Peptide P-25502, [Dat^1, D-Ala^2, Fpa5^6, Orn^12, Abu^15, Orn^21, Nle^27, Gab^30]hGHRH(1-30)NH2] (Desaminotyrosyl-[dA]DAI[Phe(F5)]TNSYR[Orn]VL[Abu]QLSAR[Orn]LLQDI[Nle]SR[GABA]-NH2), the “Stimulation of growth hormone levels after i.v. administration (comparison in words)” value (GH level [2]) is reported as “most potent”, the “Relative affinitiy (Binding potency) vs GHRH” value ([3]; GHRH(1-29) = 1) is reported as 58.0 and the “Relative affinitiy … vs JI-38” value ([3]; JI-38 = 1) is reported as 24.4. The “Stimulation of growth hormone levels after s.c. administration (comparison in words)” value (GH level [4]) was “stimulated greater growth hormone levels than hGHRH or JI-38” and the “Relative affinitiy … vs JI-38” value [1] was 13.18.

Work on JI-38 (peptide) yielded an IC50 [5] of 1.71 nM, a relative affinity (binding potency) vs GHRH (GHRH(1-29) = 1) [5] of 2.4 and an IC50 [6] of 1.95 nM. The relative affinity (binding potency) vs GHRH (GHRH(1-29) = 1) [6] was 3.03, the relative affinity (binding potency) vs JI-38 [6] was 1 JI-38 = 1 and the IC50 [7] was 4.35 nM. The relative affinity (binding potency) vs JI-38 [7] was 1 JI-38 = 1 and the GH release from superfused rat pituitary cells, 1 nM for 3 min, GH by ELISA (peak fraction, average) (GHRH receptor (rat) [8]) was 195 ng/mL.

B1: [N-Me-Tyr1, Gln8, Orn12, Abu15, Orn21, Nle27, Asp28, Agm29]hGHRH(1-29) (peptide)
peptide: [NMeY]ADAIFTQSYR[Orn]VL[Abu]QLSAR[Orn]LLQDI[Nle]D[Agmatine]
With B1 the IC50 [9] was 0.27 nM, the “relative affinity (binding potency) vs JI-38” value [9] was 16.1 JI-38 = 1 and the IC50 [10] was 0.01 nM. For the same molecule, the “relative affinity (binding potency) vs GHRH” value [10] was 406 GHRH(1-29) = 1, the “relative affinity (binding potency) vs JI-38” value [10] was 171 JI-38 = 1 and the “GH-releasing potency in superfused rat pituitary cells relative to JI-38” value (GHRH receptor (rat) [11]) was ~3 times (vs JI-38).
